Experiment: soluble fraction after stress (log2 fold change); higher = more stays soluble; pooled small domains, quantitative proteomics
Details: stress: 75 degC
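Note: 20 min heating vs room temperature control held 20 min.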

Row | Sequence | soluble fraction (log2)
1 | HMFIVTDQMQRVLDYITEKEKATNNDLEELLGVKSTRIYTITRKLIQHNLIIPVGKGKNKYYIL | -0.902
2 | HMFKDVTVPSVINKTEAEATNMLKGLNLVVSVEYEENANKSDGIVTAQNVNANKVIKEGETVTITVNKQP | 0.113
3 | HMFKNWMPFDEARIFVRKLKFNSHDEFRKYLKANEINIPSKPWSTYKGKGWVSIGDFLGTHR | -3.26
4 | HMFLPGETFDVKIVKIGEGENQGVGYLDDGTMIVIENGRDHLNELARVIVTRVLQNSAGQMIFSDYEE | -2.21
5 | HMFLTPLEETRLAIEEVVIAKNIAIDLFPRESAIRKQQHELIYHYHLKGLTVGTEKNKRLRIFPRGY | 0.0279
6 | HMFLTSDEGKIMQLLEDKQRITRKDAQELLGVSQSTAGRILKTLVDNGQITQRGGGRTTRYELIK | 0.104
7 | HMFMKNTEVALAIKGKFSNQTTITSKELVLFLSDLFPELSNKTIPWKINQLKAENLIYQTGRGIYTFN | -2.53
8 | HMFMMVAGHLQIKNEKYYMVLELRTEQGERKTKWIGTGLAVKGNKRRAEAMLEETRTKYLSPV | -2.18
9 | HMFMPGTIIKQFRELRNYSQDYVSRKMGISQNAYSKIENNITQLTVTHVKQLSSILDVPIVELLR | -3.71
10 | HMFMSDDDIRILVKEWLQSQNRKSYQLAEEIGIRPQTFYAQMSVRKISANTKKALSRIIPGL | -0.769
11 | HMFMSKTAMVAIISEADKYGLFNIPEGLSVEKTADEIFEGHIEVDFDKLKNELDFVYKNEALEKQFQEN | -0.852
12 | HMFNPEQDPKQLTGRERAVADLIGLGANNAEIAIRLSMSERTVKAHLTSIFQQLNVRDRVQLALVMNQL | -0.493
13 | HMFPASQPVPTDLNQIVRAGLEVFSGRLEGIDVRVSLEPELPRVNVDPEHFKRIVVNLVDNAAEAMQNS | 0.183
14 | HMFPATAPQLKAVHAILGKQGISDELDKLARVNEWLVGLNKEPVAAISELDKHTTSGLIDHLQGELNE | 0.297
15 | HMFPDLSPEQQRIVDVLTKSNDLQLNQLSVKTGIPIGDITSILFQMEMMGVVKPMAGGNYHLL | -1.68
16 | HMFPDLTEDEQLIVDVLQRTGDLQINSLIVEANIPVNKMSEILFELEMKGVIRTLAGGVYQLL | -2.05
17 | HMFPDRLRELRKGRNITLETLAEEMNKHLEPGQKPNTAAQIGNWERGDRSPSYIEVRKLADFFNVSMDFL | -0.586
18 | HMFPELNAEETQVVQLLQKQTEGMQVNSLVVESNIPITRMSGILFELELKGIIRNYAGGVYKL | -3.2
19 | HMFPELSEEAKVIVDALSKENDQQLNVLIANTGMAVGTMQAKLFELEMQGVVKPLAGSVYHLM | 0.111
20 | HMFPELTDDEQLIVSTLAKTNDMQINMLAVRTGIPVQRMSALLFSLEMKGVVKMYAGGTYHLL | -2.93
21 | HMFPNQLLISRLSNQLSASERFAAVSSIAQLKNIDYDVLHVLVHTMNSDPNSNVRLAALEALSR | -0.459
22 | HMFPQQGEIRQGVIASITPDQILVNVGTKSEGIISGKELEAISKSERDSLNVDQKIAVYILDPEDSNG | 0.395
23 | HMFQNPSQVVTTRVGELRAAIPTAQQGRITMGVAVVEDANSVRSVLISTSEPRGYLRPGVTLGPGETMV | 0.0661
24 | HMFQPFFENLRKASIPVSLREYLTFLEGMKKGLVTYDIEAFYFLARAAMVKDERNIDKFDRAFSATFKG | -0.306
25 | HMFQTAADVAYRIISQKILDGEFPPGMKLSRRKMAEVTSVSVIPVIEALKKLEEDGLVESKPQWGSFVTI | -1.69
26 | HMFQYEKIKDYILTGLEEGTWQAGDKIPSEAELVMSLNVSRMTVNRAVRELANSGLLVRIPGAGTFVATE | -0.643

Row | Sequence | soluble fraction (log2)
27 | HMFSIDRNIRRLRKEAGLTQEELAQKLFVTRQTISLWELGKVHPDLETLQKLAEQFQVDLLQVLYGPE | -2.33
28 | HMFSLDMDRLVRPGFMASGNVTFSDGVTGKWALDQMGRLALETAQKGYQPSPADVQAFQRELQQQLQRQG | 0.0415
29 | HMFSPTKLKEKRESQGLSQSQLASSLGISRASYFNWESGKTKPNQNNLSKLSEILNVDPRYF | 0.489
30 | HMFSSVSVPAELSNQRFDKVVAELTPDLSRSKIKQLILLGKVLLNGEVTPPKQKVETGDEIEIFYTRQIE | -0.797
31 | HMFTLDIGTIIRNRRLELNLTLEEIGNAVGVSKSTVQKWENGFISNMKRDKISALAKVLNINPVTLITGEY | -3.44
32 | HMFTLNEIIGQKIRNARISAGLTLDELSKMTGISAAQLSSLETGYRRANIDTLYAIAKAIGIDVSNLLKY | -1.39
33 | HMFTRFTVAQDGWTIGGFTAKEMAVSTAKQHAVDTGKPVTVVAHVAGGGSREAIFNSDGTNDKIWN | 0.065
34 | HMFTYEETIGKSADVYLTIPALKAGKGKIIISVRGSVHELDAMTNNAEKISTGAVVKIVRIEHGNILLVEN | -1.69
35 | HMFVEKDSIINKGNNSYNFVITDNNNKVLVEYNGLLPDLFKEEQGVVIEGRLKSDFIIHAFTVF | -0.0707
36 | HMFVGVDMAVKEEIGKEGVAFTDLRPAGKVSIGDDVYDAVSETGAFITRGTSVRVLKYQAGQVYVVK | -1.3
37 | HMFVTFFHELKSAGVPVSLREYLTLMEAMDRDLASRRVEEFYYLARTALVKDERNLDKFDRVFGHVFKGL | -4.08
38 | HMFWVESDVDFVDKTSAHNAIKENERVIGMYISYRLNGTWTTEQYVGIDTSKDNWENPDNWNIL | -1.42
39 | HMFYLPEPLTEQELRILGMLLDGRSNPEIAAELFIAVGTAKWHVHNILQKLGVANRAQAIVKAHELGLT | -2.08
40 | HMFYNELMNFIVYKDSQKIGKIVNINDKLPQPVFEVLINDKKFMVPIHDDFIEKIDKEKKSIHIVIPDGLL | -0.684
41 | HMFYWTDLIGLDVINTADERLGKVVGLIETGANAVLRVMGDDQVERLLPFGSAVVLTVEKEAGQIRVEW | -2.11
42 | HMGAARVTPLYNLRLREGPSTATARLDVVPRGTTLEVRAWDETGDWAQVEYRGQIGWIAAWLAEVEGEAP | -0.69
43 | HMGADSFTGYTPIHKIDNPSDGINDGASYVVYFQKDGTDPTEFYKAVNANASTLAQLTSGTEYDLASSKKL | 0.56
44 | HMGAEIRDKVRAALAGLNPRAAEIFVMRYFDGYGNREIARLLNTSWSTIAVTLHRTRAKLQKELK | -0.0467
45 | HMGAGDKQAQQASLMQIIALQKEGMALGLVEPKHLYHSFSKMIENAGFKDVQSFAVDPSTQQ | -0.0432
46 | HMGAGEQMLPKVMFAEGDRVVHKVFGEGTVVTVDRPAQTYDIQFDKLRGTRRIMFRAELEGI | -0.693
47 | HMGAGLDDLVRKSLHNAGLKADDNVVSWISGNLGSDRMVSRMELEKLVLFVAGQSEITLEDAQAVIGD | -0.524
48 | HMGAGLKIGNDHEYANYLEYKVSVEKYAPGAILGEIKQKGIQFNTTISKTTFYRYITDGVFLTITNADLPV | 0.374
49 | HMGALTGQERRAEIMNILRQSTMPLSGAALGKQLGVSRQVVVQDIALLRQSGEEIYATNRGYVTG | -0.417
50 | HMGAQPLIEPLSERELEVLALIAEGLTNAEIGRRLFIATGTVKRHVNTIYGKLDVHGRIEAIARARDLHLI | -1.25
51 | HMGAQRDFELQLIDVIRQNPGLTYKAYGEKLSVSQATVKRLVAKLKETGSIRREGSQRKGTWIITDD | -1.49
52 | HMGARWPIQDRPLTATEAAAVRRMYAGGLPHGRSKNSVITEVWGDLSNKPKRLDWLNQALEGGA | 0.0155

Row | Sequence | soluble fraction (log2)
53 | HMGASGVEVPDVAGMSTAQAVSSLEQKGFVVNRTESYDAGVEKGNVISQSPEGGTKAPNGSAVTIRISQGA | 0.831
54 | HMGASIQITVNNTPVMLKNKTHYTLVDVLDFYPFDLSKMGGTELYTAINGVKSGFTDPVHANDSIEIYWI | -2.49
55 | HMGASSLVGRSARVLQAVTDSDGRIKLAGETWSARLAAGATSTVGPGEEVRVIAIHGATAIVAPV | -0.581
56 | HMGASVGEVESVKTASEIYTAAAGKIVAVNDAVAKDPSLVNSDPYGNGWLVKLEIADLSAINA | 0.0161
57 | HMGAVDIATARQLISEIGLPIMLKAEGGGGGRGIFAIHNEAELEDAFFKASTMAQASFGNPRLFVEKF | -0.441
58 | HMGAVFEFIMEEEEPERIDKLLSSALPDLSRSYLQKLVKEGAVLVNKKEVKPNHKVNPGDVVEISVPEPE | 0.448
59 | HMGAVGISQKVTSLETAVLGKNFAKDPLIDRVARLEQTVLPKQAEANASLSLPERVSKLLEKVPIAAG | 0.109
60 | HMGAVPKNYFPAVEKGLQDSVQKGLLAGYPVVGVKAILYDGSYHPVDSSEMAFKTATIQAFKKGFMEA | 0.187
61 | HMGAYIPSYAPVDINAATHTVVRGDTVYNISKRYHVSQEDFRAWNGMADNTLSIGQVVKVKPAGYTAPK | -0.267
62 | HMGDAVSRAYFALADDLLKGELTETVSEVLIRTRYELTSAQLQAVLHRIAQEGWAHKKPGYGWEFSAMLT | -2.01
63 | HMGDEHYDTISAFIKSVRGSDPDAALYWLAKMILAGEDPRFILRRLIVLSGEDIGLADPQGI | -0.552
64 | HMGDEPGAGYKWREDVLLRVMSEHGIDESARDDFVRHAVKFDDDDNLYLKKAEIIAAAEAWESSS | 0.359
65 | HMGDFLLQVDFPPALLEMLPEGKRQAAIGVLSHDPRPAYQRTPGRVYGLNFAGHNIRFAVSENLLTVLEV | -2.16
66 | HMGDFLLTPHRGRSADFVIGNPPYIRLEDVPNDISDAYRAEYASMPGRADIHVGFYEKGLDL | -0.117
67 | HMGDFVIVPDLIGKTIEEFDSELNELNLKYIISDSGNYNPDFKINSVLDQLPNANSKVKGGRKIYITLNAS | -1.05
68 | HMGDGAWQQGEGGRWWYKYNNGTYPKDRVVTIGGKKYGFDSEGWMLSDTTKAFGGTTYSFAADGVATAQA | -0.0039
69 | HMGDGYTYYYDDTVLALGFTKIGNDYYIFNTFSGKMYKDATMWVNDNPYGIKGGMHYFDASGKMFV | 0.215
70 | HMGDIFTAEDAKERIDYSGVDGIMLARGIFGNPWLIRDIREYLEYGKILHPVTQLDRVNMAIEHTRKT | 0.169
71 | HMGDIMLLFKENGKVYFLVGNQYTYVKNPTELSAIKTMMKQAGYDTHEHTNTTQVAYIKRLATE | -2.35
72 | HMGDKVLIQTAQRLKKDLPFASIVSRFGGDEFLIFLPGISSTERVETIVKKTVFLFIAISTTLF | -0.28
73 | HMGDLKSLIQATMDDAGISIKPDAMDYLISHLGSDRLTTRAELDKLILYAGADDKLDLDSVVELVG | 0.00366
74 | HMGDLLTVDRVAATSGLGVDTIRYYQRLGLLDPPVRHGRRALYSTAHLDRLVEIRQLADEGFSLAQIATL | -1.05
75 | HMGDLVFDFVHGVHKAAEVEKELVMQALRFTHGNVSRAARLIGMQRSSLRYRIERYRLDAFVMEVAN | 0.276
76 | HMGDPSSERNIQKSIFILIGEKALSVQDISRSLGMPNDIIDKALISGVERNLWLSSDKGEYYL | -1.2
77 | HMGDRRSVFEQSVLDAIKSLVKQGELATTKAISDHIGTNYQGNVSRAITALLADNKIKKLPKEGVLQPYEA | -0.0172
